Values quoted from earlier work, collected in article PMC3515962.

Molecular target: IL-2 receptor (Mus musculus) (UniProt P01590)
Assay: radioligand binding

Sequence of UniProt P01590 (P01590 22-236, chain 1 of 3): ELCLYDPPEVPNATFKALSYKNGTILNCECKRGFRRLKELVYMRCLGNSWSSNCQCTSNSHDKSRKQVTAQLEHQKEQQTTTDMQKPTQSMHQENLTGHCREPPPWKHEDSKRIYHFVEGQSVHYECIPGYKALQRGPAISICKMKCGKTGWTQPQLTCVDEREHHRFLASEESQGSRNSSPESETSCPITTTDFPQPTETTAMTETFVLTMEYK
Sequence of UniProt P01590 (P16297 27-240, chain 2 of 3, further chain): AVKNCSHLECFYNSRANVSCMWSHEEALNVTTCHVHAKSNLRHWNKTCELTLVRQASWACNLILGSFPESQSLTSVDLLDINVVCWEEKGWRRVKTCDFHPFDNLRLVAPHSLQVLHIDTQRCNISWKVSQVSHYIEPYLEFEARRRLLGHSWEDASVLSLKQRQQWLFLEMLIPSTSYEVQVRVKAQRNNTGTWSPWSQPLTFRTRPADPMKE
Sequence of UniProt P01590 (P34902 23-263, chain 3 of 3, further chain): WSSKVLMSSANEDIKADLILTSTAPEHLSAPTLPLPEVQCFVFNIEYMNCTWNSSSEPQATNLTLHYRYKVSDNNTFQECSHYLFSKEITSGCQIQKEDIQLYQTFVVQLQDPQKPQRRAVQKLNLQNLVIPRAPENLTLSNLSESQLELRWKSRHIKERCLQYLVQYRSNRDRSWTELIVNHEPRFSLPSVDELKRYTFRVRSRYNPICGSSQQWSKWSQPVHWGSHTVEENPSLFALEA

- Kd: 0.02 nM
Substance: TCGF (IL-2) (from UniProt P60568)
